Results taken from PMC11365436.

Assays:
[1] = target: strep-CsoS1A (hexameric shell protein) (Halothiobacillus neapolitanus) (UniProt P45689)
[2] = target: strep-CsoS1A (hexameric shell protein) (Halothiobacillus neapolitanus) (UniProt P45689); experiment: native gel or EMSA; native 1% agarose protein gel (Tris-acetate-EDTA); proteins mixed in 50 mM Hepes, 150 mM NaCl, 30 min at room temperature; 2.5 μg CsoS1A or BSA, 8.4 μg CsoS2 or 3.5 μg MR variant (0.09 nmol); run 70 min at 60 V in 25 mM Tris, 200 mM glycine, pH 7.5; stained, quantified in FIJI

Chain of UniProt P45689 (P45689 whole entry): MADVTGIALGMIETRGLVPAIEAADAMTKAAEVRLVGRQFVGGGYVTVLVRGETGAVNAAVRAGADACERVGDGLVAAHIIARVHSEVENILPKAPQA

turbidity with 9 μM CsoS1A, compared to wtMR (fold against wtMR) [1]	percent of shell bound and shifted from its control position [2] [%]	percent less mobility shift of shell than with full-length CsoS2 [2] [%]	Substance
5	> 90	–	6xHis-CsoS2B (full-length CsoS2, long form) (from UniProt O85041-1 1-869) (natural protein)
–	–	25	6xHis-wtMR-strep (WT middle region of CsoS2, repeats 1 to 6) (domain or fragment)
